{"source": "patent US6919309B2", "about": "“Methods and compositions for inhibiting angiogenesis” (Northwestern University, priority 1997, dated 2005)", "molecules": {"B1": {"name": "PEDF: full length pigment epithelium derived growth factor, SEQ ID NO:1; purified from WERI-Rb-27R medium or recombinant histidine-tagged (protein, listed as Homo Sapiens)", "chain": "MQALVLLLCIGALLGHSSCQNPASPPEEGSPDPDSTGALVEEEDPFFKVPVNKLAAAVSNFGYDLYRVRSSMSPTTNVLLSPLSVATALSALSLGADERTESIIHRALYYDLISSPDIHGTYKELLDTVTAPQKNLKSASRIVFEKKLRIKSSFVAPLEKSYGTRPRVLTGNPRLDLQEINNWVQAQMKGKLARSTKEIPDEISILLLGVAHFKGQWVTKFDSRKTSLEDFYLDEERTVRVPMMSDPKAVLRYGLDSDLSCKIAQLPLTGSMSIIFFLPLKVTQNLTLIEESLTSEFIHDIDRELKTVQAVLTVPKLKLSYEGEVTKSLQEMKLQSLFDSPDFSKITGKPIKLTQVEHRAGFEWNEDGAGTTPSPGLQPAHLTFPLDYHLNQPFIFVLRDTDTGALLFIGKILDPRGP"}}, "key": {"[1]": {"system": "bovine adrenal capillary endothelial cells", "test": "Endothelial cell migration assay (modified Boyden chamber), bovine adrenal capillary endothelial cells", "type": "cell-based", "procedure": "The cells were plated on gelatinized Nucleopore membranes (5 μm pores for bovine capillary cells and 8 μm pores for other cells) in an inverted modified Boyden chamber. After two hours, the chamber was reinverted and test substances added to the top wells of each. Specifically, populations were exposed to either culture medium alone (control), 10 ng/ml bFGF, 2 nM PEDF (full length PEDF), or both 10 ng/ml bFGF (basic fibroblast growth factor) and 10 nM PEDF. The cells were then permitted to migrate for 3-4 hours. Following this, the membranes were fixed and stained, and the number of cells that had migrated were counted.\nThe amount of a given factor necessary to achieve 50% of migration was determined and is reported here as ED50.\nIn particular, aFGF was employed at a concentration of 50 ng/ml, bFGF was employed at a concentration of 10 ng/ml, IL-8 was employed at a concentration of 40 ng/ml, PDGF was employed at a concentration of 250 pg/ml, and VEGF was employed at a concentration of 100 pg/ml.\nIn studies aimed at identifying antiangiogenic factors in the eye that might be regulated by the retinoblastoma tumor suppressor gene (Rb), media was fractionated where the media was previously conditioned by a retinoblastoma cell line that had been infected with a retrovirus expressing the wild-type Rb gene, WERI-Rb-27R. (Xu et al., 1991, Cancer Res. 51:4481). […] PEDF was purified from WERI-Rb-27R serum-free conditioned media by sequential steps consisting of dialysis (molecular mass cutoff, 30 kD) against distilled water, 60 to 95% ammonium sulfate precipitation, step elution from lentil lectin Sepharose 4B (Pharmacia) with 0.5 M α-methyl-D-mannopyranoside, and elution from a HiTrap heparin Sepharose column (Pharmacia) with increasing NACl gradient. (Xu, et al., 1991, Cancer Res. 51:4481). […] Migration assays were performed in quadruplicate for each sample with bovine adrenal capillary endothelial cells or human dermal microvascular endothelial cells (Clonetics, San Diego, Calif.) as described. (Polverini, et al., 1991, Methods Enzymol. 198:440). To combine multiple experiments, background migration (Bkgd) was first subtracted toward vehicle (0.1% bovine serum albumin) and them normalized data by setting maximum migration toward inducer alone to 100%. All experiments were repeated two to five times. Statistics were performed on raw data before normalization with the Student's t test. Standard errors were converted to percentages. […] Single-letter abbreviations for the amino acid residues are as follows: A, Ala; D, Asp; E. Glu; F. Phe; G, Gly; I, Ile; L, Leu; M, Met; P, Pro; Q, Gln; R, Arg; S, Ser; T, Thr; V, Val; X, any amino acid; and Y, Tyr."}, "[2]": {"system": "capillary endothelial cells", "test": "bFGF-induced proliferation of capillary endothelial cells", "type": "cell-based", "details": "PEDF doses of 1.0 nM or greater", "source_text": "Human PEDF cDNA was engineered by polymerase chain reaction to encode a COOH-terminal hexahistidine tag, cloned into pCEP4 (Invitrogen, Carlsbad, Calif.), and transfected into human embryonic kidney cells. Recombinant PEDF was purified from the conditioned media with the Xpress Protein Purification System (Invitrogen, Carlsbad, Calif.)."}, "[3]": {"system": "skin of athymic (nude/nude) mice", "test": "Hair follicle density in skin of athymic nude mice after PEDF injection", "type": "in vivo, mouse", "details": "2 μg purified PEDF daily for four days into tumors; FIG. 8", "procedure": "FIG. 8, comprising FIGS. 8A, 8B and 8C, is a series of images of photomicrographs of sections of skin obtained from animals treated with PEDF, wherein hair follicles are depicted. Human neuroblastoma tumors growing subcutaneously in nude mice were injected at 2-3 sites/tumor for four consecutive days with 2 μg of purified PEDF. On the fifth day, hair was noticed growing over the treated tumors. […] Similar increases in hair follicle density have been seen in the absence of tumors following injection of purified PEDF.\nThe treatment consisted of injecting a total of 2 μg of purified histidine-tagged PEDF in a volume of 100 μl of phosphate buffered saline into 2-3 sites/tumor each day for 4 consecutive days. On the fifth day, a small area of increased hair growth was noticed over the injection sites. The mice were euthanized using an overdose of metaphane, and the tumors were surgically removed. Tumor tissue was sliced and placed in buffered formalin for at least 24 hours. Tissue was embedded in paraffin and prepared for histologic examination. The skin overlying neuroblastoma tumors treated with PEDF had increased hair follicle density when compared with the skin overlying tumors injected with saline vehicle (FIG. 8). Similar increases in hair follicle density have been seen in the absence of tumors following injection of purified PEDF."}, "[4]": {"system": "SK-N-BE(2) and SK-N-SH neuroblastoma cells", "test": "Differentiation of cultured human neuroblastoma cells (neurite outgrowth)", "type": "cell-based", "details": "in vitro, 24 hours, purified histidine tagged PEDF; FIGS. 9, 10", "procedure": "In vitro experiments were conducted to verify the effect of PEDF on cell lines derived from neuroblastoma tumors. Two neuroblastoma derived cell lines were obtained from the American Tissue Type and Culture, SK-N-BE(2) and SK-N-SH. Both cell lines were maintained in culture in DMEM containing 10% fetal bovine serum (Flow Laboratories, McLean, Va.) in 37° C. and 5% CO2. Cells (1.25×10^4/ml) were resuspended, and 1 ml/well was used to seed 24 well plates. Twenty-four hours later, PEDF was added to triplicate wells at […] , 0.75, 1 or 10 nM, and the cells were incubated for an additional 24 hours. The percentage of differentiated cells was determined by counting the total number of cells in three non-overlapping 1 mm^2 areas per well."}, "SK-N-BE(2) tumors": {"system": "SK-N-BE(2) tumors", "test": "Differentiation of human neuroblastoma tumors in athymic mice (neurofilament staining)", "type": "in vivo, mouse", "details": "2 μg PEDF per day intratumoral, 4 days", "procedure": "In vivo experiments were conducted to determine the effect of PEDF on neuroblastoma tumors. […] When the tumors grew to a palpable size (approximately 8 mm in diameter) PEDF treatment was started. A total of 2 μg of purified histidine-tagged PEDF in a volume of 100 μl of phosphate buffered saline was injected into 2-3 sites/tumor each day for 4 consecutive days. On the fifth day, the mice were euthanized by an overdose of metaphane, and the tumors were surgically removed. Tumor tissue was sliced and placed in buffered formalin for at least 24 hours. Tissue was embedded in paraffin and prepared for histologic examination. Sections were stained with an antibody that recognized neurofilament protein (Dako, Carpinteria, Calif.). […] A total of six SK-N-BE(2) tumors were treated with PEDF and 6/6 were moderately to strongly positive for neurofilament staining."}}, "note": "“Also recorded” adds a separate entry of the source.", "data": [{"molecule": "B1", "values": [{"measurement": "migration, percentage of maximal migration", "setting": "[1]; 10 ng/ml bFGF plus PEDF, FIG. 1", "value": "considerably less migration was observed"}, {"measurement": "migration toward different angiogenic inducers", "setting": "[1]; 0.1 μg/ml PEDF, aFGF, bFGF, IL-8, PDGF, VEGF, FIG. 3", "value": "considerably inhibited; also recorded: inhibited endothelial cell migration toward every angiogenic inducer we tested"}, {"measurement": "potency at inhibiting endothelial cell migration, dose response", "setting": "[1]; migration towards bFGF, FIGS. 4 and 5", "value": "active at sub-nanomolar concentrations"}, {"measurement": "inhibition of bFGF-induced proliferation", "setting": "[2]", "value": 40, "unit": "%"}, {"measurement": "density of hair follicles compared with vehicle-treated skin", "setting": "[3]", "value": "three-fold increased density of hair follicles"}, {"measurement": "differentiation of neuroblastoma cells", "setting": "[4]", "value": "triggered differentiation of the cells"}, {"measurement": "tumors moderately to strongly positive for neurofilament staining / tumors treated", "setting": "SK-N-BE(2) tumors", "value": "6/6"}]}]}
